Experimental data reported in US20110166062A1 (INDIANA UNIVERSITY RESEARCH AND TECHNOLOGY, published 2011).
Where two headings read alike, the source gives them in different places. *1 amine or outer side, *2 acyl side, *3 side chain or, on linkers, in order; H or OH if unused. Where no end group is shown, it is not given here. Side-chain parts run from the residue outwards. [ ]: non-standard residue; d: D form. The star is where a group is joined. PEG 40 kDa = PEG (40 kDa) covalently attached to Cys; γGlu = O=C(O)[C@H](CCC(=O)[*:2])N[*:1]; Palmitoyl = CCCCCCCCCCCCCCCC(=O)*; Myristoyl = CCCCCCCCCCCCCC(=O)*; Dab = NCC[C@H](N)C(=O)O; Aib = CC(C)(N)C(=O)O

Assays:
Experiment in all cases: cell-based or functional assay
glucagon receptor [1] = target: T1, glucagon receptor (UniProt P47871 26-477, limits assumed)
T1 sequence (P47871 26-477 limits assumed): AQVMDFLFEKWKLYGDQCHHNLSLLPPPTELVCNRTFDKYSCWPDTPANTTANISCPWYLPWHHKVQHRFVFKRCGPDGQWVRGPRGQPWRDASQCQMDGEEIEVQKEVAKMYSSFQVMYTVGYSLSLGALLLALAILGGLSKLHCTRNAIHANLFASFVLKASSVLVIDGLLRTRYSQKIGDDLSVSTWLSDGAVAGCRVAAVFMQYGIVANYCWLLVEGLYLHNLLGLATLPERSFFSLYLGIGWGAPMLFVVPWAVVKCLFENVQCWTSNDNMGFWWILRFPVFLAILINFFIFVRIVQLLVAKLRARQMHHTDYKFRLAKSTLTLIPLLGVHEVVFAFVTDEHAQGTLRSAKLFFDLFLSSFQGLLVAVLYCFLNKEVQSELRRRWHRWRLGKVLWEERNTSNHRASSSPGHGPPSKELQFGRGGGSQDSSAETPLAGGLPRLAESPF

GLP-1 receptor [2] = target: T2, GLP-1 receptor (UniProt P43220 24-463, limits assumed)
GIP receptor [3] = target: T3, GIP receptor (UniProt P48546 22-466)
T3 sequence (looked up): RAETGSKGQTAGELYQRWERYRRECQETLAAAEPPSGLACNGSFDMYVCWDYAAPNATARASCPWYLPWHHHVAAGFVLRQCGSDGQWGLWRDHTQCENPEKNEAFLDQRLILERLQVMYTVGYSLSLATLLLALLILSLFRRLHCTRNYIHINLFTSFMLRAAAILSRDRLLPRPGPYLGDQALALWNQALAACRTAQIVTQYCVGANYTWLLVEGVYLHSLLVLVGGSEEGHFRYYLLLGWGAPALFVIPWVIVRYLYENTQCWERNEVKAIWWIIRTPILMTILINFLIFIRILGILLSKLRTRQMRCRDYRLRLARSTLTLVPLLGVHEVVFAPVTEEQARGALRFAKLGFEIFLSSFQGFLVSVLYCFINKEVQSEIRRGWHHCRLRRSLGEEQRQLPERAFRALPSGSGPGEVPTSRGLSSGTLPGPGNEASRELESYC

glucagon receptor [4] = target: T1, glucagon receptor; remark: listed apart in the source
GLP-1 receptor [5] = target: T2, GLP-1 receptor; remark: listed apart in the source
GIP receptor [6] = target: T3, GIP receptor; remark: listed apart in the source
glucagon receptor [7] = target: T1, glucagon receptor; remark: listed apart in the source
GLP-1 receptor [8] = target: T2, GLP-1 receptor; remark: listed apart in the source
GIP receptor [9] = target: T3, GIP receptor; remark: listed apart in the source
glucagon receptor [10] = target: T1, glucagon receptor; remark: listed apart in the source

Binder | EC50, nM; GLP-1 Receptor (GLP-1 receptor [2]) | relative activity; GLP-1 Receptor (GLP-1 receptor [2]) | EC50, nM; GIP Receptor (GIP receptor [3]) | relative activity; GIP Receptor (GIP receptor [3]) | EC50, nM; Glucagon Receptor (glucagon receptor [4]) | relative activity; Glucagon Receptor (glucagon receptor [4]) | further results
HS[Dab](Ac)GTFTSDYSKYLD[Aib]RRATDFVTWLLDE [HSDab(Ac)…ibRRATDFVTWLLDE] |  |  |  |  |  |  | % activity* (glucagon receptor [1]): 46%; EC50 (nM) at Glucagon Receptor (glucagon receptor [1]): 0.057 nM
Y[Aib]EGTFTSDYSIYLDKQAA[Aib]EFVC(PEG 40 kDa)WLLAGGPSSGAPPPSK(Myristoyl)-NH2 [mt-353] | 0.0049 nM | 129% | 0.0035 nM | 103% | 12.5 nM | 0.17% | 
HXQGTFTSDYSKYLDEQAAKEFICWLMNGGPSSGAPPPSK (listed among the acylated glucagon peptides in paragraph 284; non-standard residues as in the sequence listing) [mt-345] |  | 153% |  | 4.99% |  | 193% | 
Y[Aib]EGTFTSDK(Myristoyl)SIYLDKQAA[Aib]EFVC(PEG 40 kDa)WLLAGGPSSGAPPPS-NH2 [mt-341] | 0.0636 nM | 14.6% | 0.0566 nM | 27.4% | 499 nM | 0.01% | 
Y[Aib]QGTFTSDK([γGlu-γGlu-Palmitoyl])SIYLDKQAA[Aib]EFVNWLLAGGPSSGAPPPS-NH2 (N-terminus assumed; SMILES CCCCCCCCCCCCCCCC(=O)N[C@@H](CCC(=O)N[C@@H](CCC(=O)NCCCC[C@H](NC(=O)[C@H](CC(=O)O)NC(=O)[C@H](CO)NC(=O)[C@@H](NC(=O)[C@H](Cc1ccccc1)NC(=O)[C@@H](NC(=O)CNC(=O)[C@H](CCC(N)=O)NC(=O)C(C)(C)NC(=O)[C@@H](N)Cc1ccc(O)cc1)[C@@H](C)O)[C@@H](C)O)C(=O)N[C@@H](CO)C(=O)N[C@H](C(=O)N[C@@H](Cc1ccc(O)cc1)C(=O)N[C@@H](CC(C)C)C(=O)N[C@@H](CC(=O)O)C(=O)N[C@@H](CCCCN)C(=O)N[C@@H](CCC(N)=O)C(=O)N[C@@H](C)C(=O)N[C@@H](C)C(=O)NC(C)(C)C(=O)N[C@@H](CCC(=O)O)C(=O)N[C@@H](Cc1ccccc1)C(=O)N[C@H](C(=O)N[C@@H](CC(N)=O)C(=O)N[C@@H](Cc1c[nH]c2ccccc12)C(=O)N[C@@H](CC(C)C)C(=O)N[C@@H](CC(C)C)C(=O)N[C@@H](C)C(=O)NCC(=O)NCC(=O)N1CCC[C@H]1C(=O)N[C@@H](CO)C(=O)N[C@@H](CO)C(=O)NCC(=O)N[C@@H](C)C(=O)N1CCC[C@H]1C(=O)N1CCC[C@H]1C(=O)N1CCC[C@H]1C(=O)N[C@@H](CO)C(N)=O)C(C)C)[C@@H](C)CC)C(=O)O)C(=O)O) [mt-384] |  |  |  |  |  |  | % Relative activity at the Receptor for GLP-1 (GLP-1 receptor [5]): 349%; % Relative activity at the Receptor for GIP (GIP receptor [6]): 808%; % Relative activity at the Receptor for Glucagon (glucagon receptor [7]): 228%
YXEGTFTSDYSIYLDKQAAXEFVNWLLAGGPSSGAPPPSKC (AIB at position 20 (Example 25); listed among the acylated glucagon peptides in paragraph 284; other non-standard residues as in the sequence listing) [mt-343] | 0.0224 nM | 41.5% | 0.0243 nM | 63.8% | 41.1 nM | 0.07% | 
YXEGTFTSDYSIYLDKQAAXEFVNWLLAGGPSSGAPPPSKC (AIB at position 20 (Example 25); other non-standard residues as in the sequence listing) [mt-344] | 0.089 nM | 10.4% | 0.0319 nM | 48.6% | 159 nM | 0.02% | 
HS[Dab](Ac)GTFTSDYSKYLD[Aib]RRASDFVSWLLDE [HSDab(Ac)…ibRRASDFVSWLLDE] |  |  |  |  |  |  | % activity* (glucagon receptor [1]): 54%; EC50 (nM) at Glucagon Receptor (glucagon receptor [1]): 0.048 nM
HS[Dab](Ac)GTFTSDYSKYLD[Aib]RRAADFVAWLLDTGPSSGAPPPS-NH2 (N-terminus assumed; SMILES CC(=O)NCC[C@H](NC(=O)[C@H](CO)NC(=O)[C@@H](N)Cc1c[nH]cn1)C(=O)NCC(=O)N[C@H](C(=O)N[C@@H](Cc1ccccc1)C(=O)N[C@H](C(=O)N[C@@H](CO)C(=O)N[C@@H](CC(=O)O)C(=O)N[C@@H](Cc1ccc(O)cc1)C(=O)N[C@@H](CO)C(=O)N[C@@H](CCCCN)C(=O)N[C@@H](Cc1ccc(O)cc1)C(=O)N[C@@H](CC(C)C)C(=O)N[C@@H](CC(=O)O)C(=O)NC(C)(C)C(=O)N[C@@H](CCCNC(=N)N)C(=O)N[C@@H](CCCNC(=N)N)C(=O)N[C@@H](C)C(=O)N[C@@H](C)C(=O)N[C@@H](CC(=O)O)C(=O)N[C@@H](Cc1ccccc1)C(=O)N[C@H](C(=O)N[C@@H](C)C(=O)N[C@@H](Cc1c[nH]c2ccccc12)C(=O)N[C@@H](CC(C)C)C(=O)N[C@@H](CC(C)C)C(=O)N[C@@H](CC(=O)O)C(=O)N[C@H](C(=O)NCC(=O)N1CCC[C@H]1C(=O)N[C@@H](CO)C(=O)N[C@@H](CO)C(=O)NCC(=O)N[C@@H](C)C(=O)N1CCC[C@H]1C(=O)N1CCC[C@H]1C(=O)N1CCC[C@H]1C(=O)N[C@@H](CO)C(N)=O)[C@@H](C)O)C(C)C)[C@@H](C)O)[C@@H](C)O) [HSDab(Ac)…ibRRAADFVAWLLDTGPSSGAPPPS amide] |  |  |  |  |  |  | % activity* (glucagon receptor [1]): 113%; EC50 (nM) at Glucagon Receptor (glucagon receptor [1]): 0.023 nM
Y[Aib]QGTFTSDYSIYLDKQAA[Aib]EFVNWLLAGGPSSGAPPPSK([γGlu-γGlu-Palmitoyl])-NH2 (N-terminus assumed; SMILES CCCCCCCCCCCCCCCC(=O)N[C@@H](CCC(=O)N[C@@H](CCC(=O)NCCCC[C@H](NC(=O)[C@H](CO)NC(=O)[C@@H]1CCCN1C(=O)[C@@H]1CCCN1C(=O)[C@@H]1CCCN1C(=O)[C@H](C)NC(=O)CNC(=O)[C@H](CO)NC(=O)[C@H](CO)NC(=O)[C@@H]1CCCN1C(=O)CNC(=O)CNC(=O)[C@H](C)NC(=O)[C@H](CC(C)C)NC(=O)[C@H](CC(C)C)NC(=O)[C@H](Cc1c[nH]c2ccccc12)NC(=O)[C@H](CC(N)=O)NC(=O)[C@@H](NC(=O)[C@H](Cc1ccccc1)NC(=O)[C@H](CCC(=O)O)NC(=O)C(C)(C)NC(=O)[C@H](C)NC(=O)[C@H](C)NC(=O)[C@H](CCC(N)=O)NC(=O)[C@H](CCCCN)NC(=O)[C@H](CC(=O)O)NC(=O)[C@H](CC(C)C)NC(=O)[C@H](Cc1ccc(O)cc1)NC(=O)[C@@H](NC(=O)[C@H](CO)NC(=O)[C@H](Cc1ccc(O)cc1)NC(=O)[C@H](CC(=O)O)NC(=O)[C@H](CO)NC(=O)[C@@H](NC(=O)[C@H](Cc1ccccc1)NC(=O)[C@@H](NC(=O)CNC(=O)[C@H](CCC(N)=O)NC(=O)C(C)(C)NC(=O)[C@@H](N)Cc1ccc(O)cc1)[C@@H](C)O)[C@@H](C)O)[C@@H](C)CC)C(C)C)C(N)=O)C(=O)O)C(=O)O) [mt-368] |  |  |  |  |  |  | EC50, nM; GLP-1 Receptor (GLP-1 receptor [8]): 0.0038 nM; relative activity; GLP-1 Receptor (GLP-1 receptor [8]): 419%; EC50, nM; GIP Receptor (GIP receptor [9]): 0.00097 nM; relative activity; GIP Receptor (GIP receptor [9]): 296%; EC50, nM; Glucagon Receptor (glucagon receptor [10]): 0.0069 nM; relative activity; Glucagon Receptor (glucagon receptor [10]): 492%; % Relative activity at the Receptor for GLP-1 (GLP-1 receptor [5]): 419%; % Relative activity at the Receptor for GIP (GIP receptor [6]): 296%; % Relative activity at the Receptor for Glucagon (glucagon receptor [7]): 492%
Y[Aib]QGTFISDK([γGlu-γGlu-Palmitoyl])SIYLDKQAA[Aib]EFVNWLLAGGPSSGAPPPS-NH2 (N-terminus assumed; SMILES CCCCCCCCCCCCCCCC(=O)N[C@@H](CCC(=O)N[C@@H](CCC(=O)NCCCC[C@H](NC(=O)[C@H](CC(=O)O)NC(=O)[C@H](CO)NC(=O)[C@@H](NC(=O)[C@H](Cc1ccccc1)NC(=O)[C@@H](NC(=O)CNC(=O)[C@H](CCC(N)=O)NC(=O)C(C)(C)NC(=O)[C@@H](N)Cc1ccc(O)cc1)[C@@H](C)O)[C@@H](C)CC)C(=O)N[C@@H](CO)C(=O)N[C@H](C(=O)N[C@@H](Cc1ccc(O)cc1)C(=O)N[C@@H](CC(C)C)C(=O)N[C@@H](CC(=O)O)C(=O)N[C@@H](CCCCN)C(=O)N[C@@H](CCC(N)=O)C(=O)N[C@@H](C)C(=O)N[C@@H](C)C(=O)NC(C)(C)C(=O)N[C@@H](CCC(=O)O)C(=O)N[C@@H](Cc1ccccc1)C(=O)N[C@H](C(=O)N[C@@H](CC(N)=O)C(=O)N[C@@H](Cc1c[nH]c2ccccc12)C(=O)N[C@@H](CC(C)C)C(=O)N[C@@H](CC(C)C)C(=O)N[C@@H](C)C(=O)NCC(=O)NCC(=O)N1CCC[C@H]1C(=O)N[C@@H](CO)C(=O)N[C@@H](CO)C(=O)NCC(=O)N[C@@H](C)C(=O)N1CCC[C@H]1C(=O)N1CCC[C@H]1C(=O)N1CCC[C@H]1C(=O)N[C@@H](CO)C(N)=O)C(C)C)[C@@H](C)CC)C(=O)O)C(=O)O) [mt-385] |  |  |  |  |  |  | % Relative activity at the Receptor for GLP-1 (GLP-1 receptor [5]): 3.18%; % Relative activity at the Receptor for GIP (GIP receptor [6]): 715%; % Relative activity at the Receptor for Glucagon (glucagon receptor [7]): 239%
